For 2 substances, % of cells in the secreted IgE+ / IgM- gate and % IgG+ of plasma cells results are on record in patent US20230349919A1.

Assay [1] has as its target IgE (lambda light chain) secreted by U266 cells. Nature of the assay: flow cytometry, U266 cells alone with the StAv-FcεRIα capture complex; x axis Secreted IgE, y axis IgM. In general terms: In flow cytometry, cells or beads pass a laser one at a time.
The target is the same in assay [2]. Nature of the assay: flow cytometry, Ramos + U266 mixed 100X1 with the StAv-FcεRIα capture complex; 94.6 % of the cells lie in the IgM+ gate at low secreted IgE.
The next assay addresses Secreted IgG. Nature of the assay: flow cytometry, human bone marrow plasma cells (CD20- CD38++) with NHS-biotin, StAv-anti-human Igk and anti-IgG; controls in FIG. 21B (D00065): without NHS-Biotin 1.2%, without StAv-IgKappa 0.72%, without anti-IgG 0%.

As to “secreted IgE capture reagent: streptavidin conjugated to the ectodomain of the high affinity IgE receptor FcεRIα (from UniProt P12319 26-205)”, the % of cells in the secreted IgE+ / IgM- gate stood at 94.9% in assay [1] and 2.4% in assay [2].
Substance “streptavidin coupled to anti-human Igk (antibody)” showed a % IgG+ of plasma cells in the assay with Secreted IgG of 5.2%.
